{"source": "patent US5985583", "about": "“Cloning and expression of gonadotropin-releasing hormone receptor” (Mount Sinai School of Medicine of The City University of …, dated 1999)", "key": {"[1]": {"target": "human gonadotropin-releasing hormone receptor (GnRH-R), clone LC27-4 (human)"}, "[2]": {"target": "human gonadotropin-releasing hormone receptor (GnRH-R), clone LC27-4 (human)", "test": "Kd derived by the filing from the IC50 of inhibition of GnRH-stimulated inositol phosphate production in COS-1 cells expressing the human GnRH-R"}, "[3]": {"target": "T1, human gonadotropin-releasing hormone receptor (GnRH-R), clone LC27-4 (human)", "T1 chain": "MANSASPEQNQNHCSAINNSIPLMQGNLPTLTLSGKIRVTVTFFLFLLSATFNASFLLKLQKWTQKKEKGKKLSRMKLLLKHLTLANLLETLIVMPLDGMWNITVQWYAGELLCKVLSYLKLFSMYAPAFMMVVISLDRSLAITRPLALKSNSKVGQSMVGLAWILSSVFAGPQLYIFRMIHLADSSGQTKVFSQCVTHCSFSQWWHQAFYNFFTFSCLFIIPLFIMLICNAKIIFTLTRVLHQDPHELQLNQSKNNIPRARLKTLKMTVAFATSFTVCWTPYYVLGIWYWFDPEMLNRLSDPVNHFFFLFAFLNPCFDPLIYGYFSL", "test": "displacement of 125I-GnRH-A, membranes of COS-1 cells transfected with the human GnRH-R", "procedure": "(§1) For studies on inositol phosphate production, 1.8 ×10^5 cells/well (12-well plates) were transfected with 1.5 μg DNA. Cells were assayed 48 hours after transfection.\nCell membranes were prepared from transfected cells with a single centrifugation step as described for rat pituitaries (Millar et al., 1989, J. Biol. Chem. 264:21007–21013)."}, "[4]": {"target": "T1, human gonadotropin-releasing hormone …", "test": "Kd derived by the filing from the IC50 of inhibition of GnRH-stimulated inositol phosphate production in COS-1 cells expressing the human GnRH-R", "procedure": "as §1"}, "[5]": {"target": "T2, mouse gonadotropin-releasing hormone receptor (GnRH-R), clone WZ25 (mouse)", "T2 chain": "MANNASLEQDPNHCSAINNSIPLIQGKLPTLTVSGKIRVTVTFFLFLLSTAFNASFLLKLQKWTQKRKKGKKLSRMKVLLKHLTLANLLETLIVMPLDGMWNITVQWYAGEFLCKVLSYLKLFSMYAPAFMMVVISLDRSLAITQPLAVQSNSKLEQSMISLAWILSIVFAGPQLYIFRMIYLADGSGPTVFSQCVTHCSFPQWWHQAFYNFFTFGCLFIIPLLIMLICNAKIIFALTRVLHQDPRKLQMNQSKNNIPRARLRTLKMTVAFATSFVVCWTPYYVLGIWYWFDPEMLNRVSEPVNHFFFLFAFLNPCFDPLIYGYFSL", "test": "displacement of 125I-GnRH-A by GnRH-A, membranes of WZ25 RNA-injected oocytes", "procedure": "(§2) For membrane preparation, 500 oocytes were each injected with 2.5 ng synthetic WZ25 RNA. After 48 hours, oocyte membranes were prepared as described (Kobilka et al., 1987, J. Biol. Chem. 262: 15796–15802) and resuspended in binding buffer containing 10 mM HEPES, 1 mM EDTA, and 0.1% bovine serum albumin to give a final concentration of 20 oocytes/ml.\n(§3) To further characterize the receptor encoded by this cDNA clone, radioligand binding assays were performed on membranes purified from oocytes injected with the WZ25 RNA transcript."}, "[6]": {"target": "T2, mouse gonadotropin-releasing hormone …", "test": "displacement of 125I-GnRH-A by GnRH-A, αT3-1 cell membranes (endogenous mouse receptor)"}, "[7]": {"target": "T2, mouse gonadotropin-releasing hormone …", "test": "displacement of 125I-GnRH-A by GnRH, membranes of WZ25 RNA-injected oocytes", "procedure": "as §2, §3"}}, "note": "Non-standard residues stand in square brackets, D forms with d. No end group written: not given here. d(pGlu) = O=C1CC[C@H](C(=O)O)N1; NMeL = CN[C@@H](CC(C)C)C(=O)O", "data": [{"molecule": "gonadotropin-releasing hormone (GnRH) (from UniProt P01148) (peptide)", "values": [{"measurement": "EC50 of inositol phosphate production in COS-1 cells transfected with pSV2A-human GnRH-R", "setting": "[1]", "value": 3, "unit": "nM"}, {"measurement": "inositol phosphate production in COS-1 cells transfected with pSV2A-human GnRH-R", "setting": "[1]", "value": 8, "unit": "fold"}]}, {"molecule": "antagonist 13: [Ac-D-NaI1,D-α-4-ClPhe2, D-Pal3,D-Arg6, D-Ala10]GnRH (from UniProt P01148) (peptide)", "values": [{"measurement": "Kd", "setting": "[2]", "value": 0.21, "unit": "nM"}, {"measurement": "IC50 of inhibition of GnRH-stimulated (10-8 M) inositol phosphate production in COS-1 cells transfected with pSV2A-human GnRH-R", "setting": "[1]", "value": "6.7e-09", "unit": "M"}]}, {"molecule": "[d(pGlu)][dF][dW]SY[dW]LRPG (ends and bridges not checked)", "note": "[antagonist 5: [D-pGlu1,D-Phe2,D-Trp3,6]GnRH]", "values": [{"measurement": "Kd", "setting": "[3]", "value": 8.4, "unit": "nM"}, {"measurement": "Kd", "setting": "[4]", "value": 3.6, "unit": "nM"}, {"measurement": "IC50 of inhibition of GnRH-stimulated (10-8 M) inositol phosphate production in COS-1 cells transfected with pSV2A-human GnRH-R", "setting": "[1]", "value": "1.05e-07", "unit": "M"}]}, {"molecule": "QHWSY[dA][NMeL]RP-NHEt (ends and bridges not checked; also: 125I label on the tracer form)", "note": "[[D-Ala6, NαMe-Leu7, Pro9-NHEt]GnRH (GnRH-A)]", "values": [{"measurement": "Kd", "setting": "[3]", "value": 0.97, "unit": "nM"}, {"measurement": "Kd", "setting": "[5]", "value": 4.5, "unit": "nM"}, {"measurement": "Kd", "setting": "[6]", "value": 2.9, "unit": "nM"}]}, {"molecule": "QHWSYGLRPG", "note": "[gonadotropin-releasing hormone (GnRH)]", "values": [{"measurement": "binding result", "setting": "[7]", "value": "binds"}]}]}
